BC50 (half-maximal binding concentration) data for one substance are collected here from paper PMC6191538.

The target of the assay is Hoc- Soc- phage T4 particles (capsid) (phage T4) (UniProt P13332). Kind of assay: co-sedimentation.

In the case of Soc-PA (93 kDa), the BC50 (half-maximal binding concentration) is 1140 nM.
